Experiments:
[1] = target: T1, HER2/ERBB2 receptor tyrosine kinase (human, UniProt P04626 23-1255); experiment: GST pull-down from SKBR3 cell lysates, anti-HER2 immunoblot (FIG. 2A, left)
T1 construct: whole, on cells; Endogenous HER2 in cell lysates, detected by anti-HER2 immunoblot of precipitates or GST adsorbates; also called Neu; CD340
Experimental: Lysates from SKBR3 (left) and BT474 (right) cells were incubated with the indicated GST or GST-fusion proteins. The adsorbates were immunoblotted (IB) with anti-HER2. Input of the GST proteins was assessed by Coomassie blue staining. […] Lysates were immunoblotted with the indicated antibodies. […] Lysates were immunoblotted with the indicated antibodies. […] Cell number (mean±s.e. of three determinations) was determined by Trypan blue staining. IP, immunoprecipitated.

[2] = target: T1, HER2/ERBB2 receptor tyrosine kinase; experiment: co-immunoprecipitation: anti-MUC1-C precipitates of SKBR3 and BT474 lysates, immunoblot (FIG. 1B)
Description: (FIG. 1C). […] Lysates were immunoblotted with the indicated antibodies. […] IP, immunoprecipitated.

| Binder | binding result [1] | binding result [2] |
| --- | --- | --- |
| GST-MUC1-CD in which the CQC motif had been mutated to AQA (other, not shown: a dimerising Fc or GST; large carriers; small tags and cut ends, also called MUC1-CD(AQA)) AQARRKNYGQLDIFPARDTYHPMSEYPTYHTHGRYVPPSSTDRSPYEKVSAGNGGSSLSYTNPAVAATSANL | no binding | – |
| MUC1 C-terminal subunit (MUC1-C) (other, Endogenous MUC1-C in lysates of SKBR3, BT474, SKBR3R and BT474R human breast cancer cells, precipitated with anti-MUC1-C) GSVVVQLTLAFREGTINVHDVETQFNQYKTEAASRYNLTISDVSVSDVPFPFSAQSGAGVPGWGIALLVLVCVLVALAIVYLIALAVCQCRRKNYGQLDIFPARDTYHPMSEYPTYHTHGRYVPPSSTDRSPYEKVSAGNGGSSLSYTNPAVAATSANL | – | binds |

From US20160074468A1 (GENUS ONCOLOGY, published 2016)
